Measured values as given in publication PMC3317225, “MsDpo4—a DinB Homolog from Mycobacterium smegmatis—Is an Error-Prone DNA Polymerase That Can Promote G:T and T:G Mismatches” (Journal of Nucleic Acids, 2012).

Key:
Assay in all cases: steady-state primer extension, 6-FAM labelled primer, gel, Lineweaver-Burk
Type in all cases: biochemical, Mycolicibacterium smegmatis
[1] = substrate: Nc1nc2c(ncn2[C@H]2C[C@H](O)[C@@H](COP(=O)(O)OP(=O)(O)OP(=O)(O)O)O2)c(=O)[nH]1; details: template dT (mismatch T:G, misincorporation), 20 nM DNA T2P1, 10 nM enzyme, Mg2+, pH 8.0, 37°C (given for the primer extension assay), number in parentheses is standard error
Excerpt: (§1) steady-state primer extension, 6-FAM labelled primer, gel, Lineweaver-Burk on MsDpo4

[2] = substrate: Cc1cn([C@H]2C[C@H](O)[C@@H](COP(=O)(O)OP(=O)(O)OP(=O)(O)O)O2)c(=O)[nH]c1=O; details: template dG (mismatch G:T, misincorporation), 20 nM DNA T1P1, 10 nM enzyme, Mg2+, pH 8.0, 37°C (given for the primer extension assay), number in parentheses is standard error
Excerpt: as §1

[3] = substrate: Nc1ncnc2c1ncn2[C@H]1C[C@H](O)[C@@H](COP(=O)(O)OP(=O)(O)OP(=O)(O)O)O1; details: template dT (correct pair T:A), 20 nM DNA T2P1, 1 nM enzyme, Mg2+, pH 8.0, 37°C (given for the primer extension assay), number in parentheses is standard error
Excerpt: as §1

[4] = substrate: Nc1ccn([C@H]2C[C@H](O)[C@@H](COP(=O)(O)OP(=O)(O)OP(=O)(O)O)O2)c(=O)n1; details: template dG (correct pair G:C), 20 nM DNA T1P1, 1 nM enzyme, Mg2+, pH 8.0, 37°C (given for the primer extension assay), number in parentheses is standard error
Excerpt: as §1

B1: MsDpo4 (Mycolicibacterium smegmatis MC2 155) (protein)
chain: MTKWVLHVDLDQFLASVELRRRPDLRGQPVIVGGSGDPSEPRKVVTCASYEAREFGVHAGMPLRAAARRCPDATFLPSDPAAYDEASEQVMGLLRDLGHPLEVWGWDEAYLGADLPDESDPVEVAERIRTVVAAETGLSCSVGISDNKQRAKVATGFAKPAGIYVLTEANWMTVMGDRPPDALWGVGPKTTKKLAAMGITTVADLAVTDPSVLTTAFGPSTGLWLLLLAKGGGDTEVSSEPWVPRSRSHVVTFPQDLTERREMDSAVRDLALQTLAEIVEQGRIVTRVAVTVRTSTFYTRTKIRKLPAPSTDAGQIVDTALAVLDQFELDRPVRLLGVRLELAMDDVPRPAVTAGT
notes: msmeg_1014 in pGEX6P1, expressed as GST-MsDpo4 fusion in bacteria; single-chain Y-family polymerase
- Km [1]: 166.5 (39.01) μM
- Km [2]: 165.5 (39.70) μM
- Km [3]: 5.5 (1.54) μM
- Km [4]: 4.3 (0.69) μM
